This passage reports kon and peptide cleavage rate kb from the kinetic model matched to the plasmon-shift time traces results from PMC10616847.

Assay [1] deals with thrombin-specific peptide with the cleavage site. Briefly: single-particle plasmon sensing (dark-field scattering microscopy of gold nanorods); same sensor; standard deviation of the start time t0 of cleavage among particles against thrombin concentration, fitted with Poisson statistics of the waiting time for the first enzyme to bind to a particle; additional uncertainty of 20 s allowed.
Chain of thrombin-specific peptide with the cleavage site (peptide, as listed by the source): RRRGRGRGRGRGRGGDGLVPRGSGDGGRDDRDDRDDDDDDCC

For assay [2] the target is unchanged. Briefly: single-particle plasmon sensing (dark-field scattering microscopy of gold nanorods); peptide held on gold nanorods on a coverslip in a flow cell; thrombin 1-300 nM injected at 5 uL/min in 50 mM Tris-HCl, 10 mM CaCl2, 150 mM NaCl, pH 8.4; rate constants of a three-stage kinetic model adjusted to match the plasmon-shift time traces.
Assay [3] has the same target.

One may read the kon as a measure of how fast the partners come together. Regarding active thrombin (enzyme), the kon in assay [1] stood at 100000 M⁻¹ s⁻¹; in assay [2], 200000 M⁻¹ s⁻¹. For the same substance, the peptide cleavage rate kb from the kinetic model matched to the plasmon-shift time traces in assay [3] turned out to be 0.01 s^–1.
